Measured values as given in paper PMC11446282.

System: B55α interactors
Test: MS analysis of B55α WT, V228A, I284A, S287A and D340A immunopurifications
Type: binding, human
Conditions: log2 ratio of interactor abundance, 4 replicates each, normalised to bait B55α; for log2_ratio_D340_WT: B55α D340A vs WT immunopurification; for log2_ratio I284_WT: B55α I284A vs WT immunopurification; for log2_ratio S287_WT: B55α S287A vs WT immunopurification; for log2_ratio V228_WT: B55α V228A vs WT immunopurification
Protocol: Standard cloning techniques were used throughout. Point mutations were introduced by whole plasmid polymerase chain reaction (PCR). All constructs were fully sequenced. Synthetic DNA was purchased from GeneArt, Life Technologies and cloned into pcDNA5/FRT/TO (Invitrogen) expression vector containing YFP, resulting in the indicated YFP fusion proteins. These constructs were transiently transfected into HeLa cells 24 hours before harvesting cells. Cells were lysed in lysis buffer [50 mM tris-HCl (pH 7.5), 50 mM NaCl, 1 mM EDTA, 1 mM […], and 0.1% NP-40]. Complexes were immunoprecipitated at 4°C in lysis buffer with green fluorescent protein (GFP)–Trap (ChromoTek) and washed in lysis buffer. Precipitated protein complexes were washed three times in lysis buffer, eluted in 2× SDS sample buffer, and subjected to Western blotting or MS as indicated.
Pull-downs were analyzed on a Q-Exactive Plus quadrupole or Fusion Orbitrap Lumos mass spectrometer (Thermo Fisher Scientific) equipped with Easy-nLC 1000 or […] (Thermo Fisher Scientific) and nanospray source (Thermo Fisher Scientific).
Static modifications included carbamidomethylcysteine, and variable modifications included oxidized methionine and STY phosphorylation. Searches were filtered using orthogonal measures including mass measurement accuracy (±3 parts per million), Xcorr for charges from +2 to +4, and dCn targeting a <1% false discovery rate at the peptide level. Quantification of LC-MS/MS spectra was performed using MassChroQ ([57]) and the iBAQ method ([58]). All data were analyzed using R 4.3.0. Missing values were imputed from a normal distribution. […] In each dataset, the abundance of the protein of interest was normalized to be equal across all samples. Statistical analyses were done using a two-tailed Student’s t test.

Molecule | log2_ratio_D340_WT | log2_ratio I284_WT | log2_ratio S287_WT | log2_ratio V228_WT
IER2_HUMAN (protein, UniProt Q9BTL4 1-223, looked up) Immediate early response gene …: MEVQKEAQRIMTLSVWKMYHSRMQRGGLRLHRSLQLSLVMRSARELYLSAKVEALEPEVSLPAALPSDPRLHPPREAESTAETATPDGEHPFPEPMDTQEAPTAEETSACCAPRPAKVSRKRRSSSLSDGGDAGLVPSKKARLEEKEEEEGASSEVADRLQPPPAQAEGAFPNLARVLQRRFSGLLNCSPAAPPTAPPACEAKPACRPADSMLNVLVRAVVAF | -8.18 | -0.03 | 0.35 | -2.82
SIK2_HUMAN (protein, UniProt Q9H0K1 1-926, looked up) Serine/threonine-protein …: MVMADGPRHLQRGPVRVGFYDIEGTLGKGNFAVVKLGRHRITKTEVAIKIIDKSQLDAVNLEKIYREVQIMKMLDHPHIIKLYQVMETKSMLYLVTEYAKNGEIFDYLANHGRLNESEARRKFWQILSAVDYCHGRKIVHRDLKAENLLLDNNMNIKIADFGFGNFFKSGELLATWCGSPPYAAPEVFEGQQYEGPQLDIWSMGVVLYVLVCGALPFDGPTLPILRQRVLEGRFRIPYFMSEDCEHLIRRMLVLDPSKRLTIAQIKEHKWMLIEVPVQRPVLYPQEQENEPSIGEFNEQVLRLMHSLGIDQQKTIESLQNKSYNHFAAIYFLLVERLKSHRSSFPVEQRLDGRQRRPSTIAEQTVAKAQTVGLPVTMHSPNMRLLRSALLPQASNVEAFSFPASGCQAEAAFMEEECVDTPKVNGCLLDPVPPVLVRKGCQSLPSNMMETSIDEGLETEGEAEEDPAHAFEAFQSTRSGQRRHTLSEVTNQLVVMPGAGKIFSMNDSPSLDSVDSEYDMGSVQRDLNFLEDNPSLKDIMLANQPSPRMTSPFISLRPTNPAMQALSSQKREVHNRSPVSFREGRRASDTSLTQGIVAFRQHLQNLARTKGILELNKVQLLYEQIGPEADPNLAPAAPQLQDLASSCPQEEVSQQQESVSTLPASVHPQLSPRQSLETQYLQHRLQKPSLLSKAQNTCQLYCKEPPRSLEQQLQEHRLQQKRLFLQKQSQLQAYFNQMQIAESSYPQPSQQLPLPRQETPPPSQQAPPFSLTQPLSPVLEPSSEQMQYSPFLSQYQEMQLQPLPSTSGPRAAPPLPTQLQQQQPPPPPPPPPPRQPGAAPAPLQFSYQTCELPSAASPAPDYPTPCQYPVDGAQQSDLTGPDCPRSPGLQEAPSSYDPLALSELPGLFDCEMLDAVDPQHNGYVLVN | 2.13 | -0.65 | -1.90 | -3.24
PPME1_HUMAN (protein, UniProt Q9Y570 2-386, looked up) Protein phosphatase …: SALEKSMHLGRLPSRPPLPGSGGSQSGAKMRMGPGRKRDFSPVPWSQYFESMEDVEVENETGKDTFRVYKSGSEGPVLLLLHGGGHSALSWAVFTAAIISRVQCRIVALDLRSHGETKVKNPEDLSAETMAKDVGNVVEAMYGDLPPPIMLIGHSMGGAIAVHTASSNLVPSLLGLCMIDVVEGTAMDALNSMQNFLRGRPKTFKSLENAIEWSVKSGQIRNLESARVSMVGQVKQCEGITSPEGSKSIVEGIIEEEEEDEEGSESISKRKKEDDMETKKDHPYTWRIELAKTEKYWDGWFRGLSNLFLSCPIPKLLLLAGVDRLDKDLTIGQMQGKFQMQVLPQCGHAVHEDAPDKVAEAVATFLIRHRFAEPIGGFQCVFPGC | -3.73 | -7.04 | -10.17 | -9.33
AMOL2_HUMAN (protein, UniProt Q9Y2J4 1-779, looked up) Angiomotin-like protein 2: MRTLEDSSGTVLHRLIQEQLRYGNLTETRTLLAIQQQALRGGAGTGGTGSPQASLEILAPEDSQVLQQATRQEPQGQEHQGGENHLAENTLYRLCPQPSKGEELPTYEEAKAHSQYYAAQQAGTRPHAGDRDPRGAPGGSRRQDEALRELRHGHVRSLSERLLQLSLERNGARAPSHMSSSHSFPQLARNQQGPPLRGPPAEGPESRGPPPQYPHVVLAHETTTAVTDPRYRARGSPHFQHAEVRILQAQVPPVFLQQQQQYQYLQQSQEHPPPPHPAALGHGPLSSLSPPAVEGPVSAQASSATSGSAHLAQMEAVLRENARLQRDNERLQRELESSAEKAGRIEKLESEIQRLSEAHESLTRASSKREALEKTMRNKMDSEMRRLQDFNRDLRERLESANRRLASKTQEAQAGSQDMVAKLLAQSYEQQQEQEKLEREMALLRGAIEDQRRRAELLEQALGNAQGRAARAEEELRKKQAYVEKVERLQQALGQLQAACEKREQLELRLRTRLEQELKALRAQQRQAGAPGGSSGSGGSPELSALRLSEQLREKEEQILALEADMTKWEQKYLEERAMRQFAMDAAATAAAQRDTTLIRHSPQPSPSSSFNEGLLTGGHRHQEMESRLKVLHAQILEKDAVIKVLQQRSRRDPGKAIQGSLRPAKSVPSVFAAAAAGTQGWQGLSSSERQTADAPARLTTDRAPTEEPVVTAPPAAHAKHGSRDGSTQTEGPPDSTSTCLPPEPDSLLGCSSSQRAASLDSVATSRVQDLSDMVEILI | 2.17 | 3.49 | 2.56 | –
RBM7_HUMAN (protein, UniProt Q9Y580 2-266, looked up) RNA-binding protein 7: GAAAAEADRTLFVGNLETKVTEELLFELFHQAGPVIKVKIPKDKDGKPKQFAFVNFKHEVSVPYAMNLLNGIKLYGRPIKIQFRSGSSHAPQDVSLSYPQHHVGNSSPTSTSPSRYERTMDNMTSSAQIIQRSFSSPENFQRQAVMNSALRQMSYGGKFGSSPLDQSGFSPSVQSHSHSFNQSSSSQWRQGTPSSQRKVRMNSYPYLADRHYSREQRYTDHGSDHHYRGKRDDFFYEDRNHDDWSHDYDNRRDSSRDGKWRSSRH | -4.64 | -3.46 | 0.85 | -3.26
ACOT8_HUMAN (protein, UniProt O14734 1-319, looked up) Acyl-coenzyme A thioesterase 8: MSSPQAPEDGQGCGDRGDPPGDLRSVLVTTVLNLEPLDEDLFRGRHYWVPAKRLFGGQIVGQALVAAAKSVSEDVHVHSLHCYFVRAGDPKLPVLYQVERTRTGSSFSVRSVKAVQHGKPIFICQASFQQAQPSPMQHQFSMPTVPPPEELLDCETLIDQYLRDPNLQKRYPLALNRIAAQEVPIEIKPVNPSPLSQLQRMEPKQMFWVRARGYIGEGDMKMHCCVAAYISDYAFLGTALLPHQWQHKVHFMVSLDHSMWFHAPFRADHWMLYECESPWAGGSRGLVHGRLWRQDGVLAVTCAQEGVIRVKPQVSESKL | -0.23 | – | 0.94 | –
